Assay results: patent US10947523B2, “Biotechnological production of L-tryptophan” (Technische Universitaet Hamburg, priority 2017, dated 2021)

What was measured:
6His-eIGPs = molecular target: T1, 6His-eIGPs (Escherichia coli, UniProt P00909); experiment: IGPs enzyme assay, inhibition by anthranilate; assay type: biochemical; conditions: isolated IGPs domain, N-terminal His-tag
T1 construct: made in house; host or cells: E. coli Top10
Description: (§3) The activity of IGPs from E. coli was measured by monitoring the formation of IGP via absorbance at 278 nm [23] with a molar extinction coefficient value of 5500 M^−1 cm^−1 [24]. Assays were performed in 50 mM HEPPS pH 7.5, 4 mM EDTA at 30° C. with 20-25 μg/mL of purified enzymes in cuvettes. To investigate the effect of anthranilate on the activity of IGPs, the activities were measured in the presence of different concentrations of anthranilate. Unless stated otherwise, the reactions were started by adding 180 μM of the substrate CdRP. […] The concentration of the synthesized CdRP in the stock solution was determined by measuring the concentrations of the product IGP with completely converted reactions.

6His-TrpC = molecular target: T2, 6His-TrpC (Escherichia coli, UniProt P00909); experiment: IGPs enzyme assay, inhibition by anthranilate; assay type: biochemical
T2 construct: inserting the PCR products amplified from E. coli S028 with primers EcoRI-6H-trpC and trpC-XbaI; made in house; host or cells: E. coli Top10
Description: as §3
In order to figure out whether the PRAi domain has an influence on the inhibition resistance of eIGPs, the effect of anthranilate on the activity of IGPs in the form of eIGPs-PRAi (6His-TrpC) was tested.

eIGPs-6His = molecular target: T3, eIGPs-6His (Escherichia coli, UniProt P00909); experiment: IGPs enzyme assay, inhibition by anthranilate; assay type: biochemical
T3 construct: made in house; host or cells: E. coli BL21
Description: (§1) The activity of IGPs from E. coli was measured by monitoring the formation of IGP via absorbance at 278 nm with a molar extinction coefficient value of 5500 M^−1 cm^−1 [24]. Assays were performed in 50 mM HEPPS pH 7.5, 4 mM EDTA at 30° C. with 20-25 μg/mL of purified enzymes in cuvettes. To investigate the effect of anthranilate on the activity of IGPs, the activities were measured in the presence of different concentrations of anthranilate. Unless stated otherwise, the reactions were started by adding 180 μM of the substrate CdRP. The synthesis of CdRP was performed by following the improved method reported by Kirschner et al.. The concentration of the synthesized CdRP in the stock solution was determined by measuring the concentrations of the product IGP with completely converted reactions.
To elucidate the effect of anthranilate on the enzyme activity of eIGPs, the catalytic activity of the isolated eIGPs (eIGPs-6His) was examined in the presence of different concentrations of anthranilate. […] The inhibition constant (IC50, 50% inhibitory concentration) of eIGPs-6His was measured to be about 0.70 mM.

[1] = molecular target: T4, ScIGPs (ScTrpC without anthranilate synthase II domain) (Saccharomyces cerevisiae, UniProt P00937); experiment: Effect of anthranilate on IGPs activity; assay type: biochemical; conditions: anthranilate synthase II domain removed, FIG. 8
T4 construct: ScIGPs=ScTrpC without anthranilate synthase II domain
T4 sequence (P00937 215-484 limits assumed): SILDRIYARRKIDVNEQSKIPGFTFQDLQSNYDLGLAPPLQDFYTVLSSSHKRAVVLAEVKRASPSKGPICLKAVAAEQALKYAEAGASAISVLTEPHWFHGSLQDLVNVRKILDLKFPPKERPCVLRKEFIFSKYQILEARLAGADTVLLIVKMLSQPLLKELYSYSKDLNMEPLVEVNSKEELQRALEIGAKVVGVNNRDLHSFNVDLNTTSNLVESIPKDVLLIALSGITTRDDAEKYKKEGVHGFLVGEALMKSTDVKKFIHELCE
Excerpt: FIG. 8. Effects of anthranilate on the activities of ScTrpC and ScIGPs (ScIGPs=ScTrpC without anthranilate synthase II domain).

eIGPs mutant S60A = molecular target: T5, eIGPs mutant S60A (Escherichia coli, UniProt P00909, S61A); experiment: IGPs enzyme assay, inhibition by anthranilate; assay type: biochemical
T5 construct: made in house; host or cells: E. coli BL21
Description: as §1
(§2) […]. Therefore, the effect of anthranilate on the activity of this mutants was not investigated. […] […].

eIGPs mutant S60G = molecular target: T6, eIGPs mutant S60G (Escherichia coli, UniProt P00909, S61G); experiment: IGPs enzyme assay, inhibition by anthranilate; assay type: biochemical; conditions: read-out: activity of mutant S60G inhibited
T6 construct: made in house; host or cells: E. coli BL21
Description: as §1, §2

ScTrpC = molecular target: T7, ScTrpC (Saccharomyces cerevisiae, UniProt P00937); experiment: Effect of anthranilate on IGPs activity of TrpC; assay type: biochemical; conditions: FIG. 7
T7 sequence (P00937 1-484): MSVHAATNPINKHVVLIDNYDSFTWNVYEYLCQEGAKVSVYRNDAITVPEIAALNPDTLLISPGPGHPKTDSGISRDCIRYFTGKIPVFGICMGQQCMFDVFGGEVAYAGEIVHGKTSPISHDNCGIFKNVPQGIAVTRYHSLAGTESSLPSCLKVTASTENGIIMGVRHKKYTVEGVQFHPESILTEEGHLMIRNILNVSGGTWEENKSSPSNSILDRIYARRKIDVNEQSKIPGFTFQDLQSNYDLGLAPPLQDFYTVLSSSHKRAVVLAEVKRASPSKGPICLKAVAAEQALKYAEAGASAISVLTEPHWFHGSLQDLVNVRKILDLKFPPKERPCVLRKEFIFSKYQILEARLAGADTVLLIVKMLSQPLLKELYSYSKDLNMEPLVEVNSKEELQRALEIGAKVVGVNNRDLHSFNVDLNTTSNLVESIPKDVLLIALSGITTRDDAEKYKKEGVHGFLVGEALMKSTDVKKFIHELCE

AgTrpC = AgTrpC (Aspergillus niger, UniProt P05328); experiment: Effect of anthranilate on IGPs activity of TrpC; assay type: biochemical; conditions: FIG. 7
[2] = Specific activities and kinetic constants of TrpC WT and TrpC QVFQ; assay type: biochemical, Escherichia coli
Description: as §1

[3] = SDS-PAGE analysis, data not shown
[4] = Enzyme assay of wild-type and mutant eIGPs (specific activity); assay type: biochemical, Escherichia coli; conditions: for anthranilate resistance / sensitivity compared with wild-type eIGPs (in words): FIG. 3
Description: as §1, §2

[5] = Michaelis constants of 6His-TrpC without and with anthranilate; assay type: biochemical, Escherichia coli
Description: as §1
To identify the mechanism of the inhibition of eIGPs by anthranilate, the effect of the inhibitor on the Michaelis constants of eIGPs was investigated with 6His-TrpC. Various concentration of CdRP (from 2.6 to 260 μM) were used when the reactions carried out in the absence of anthranilate and in the presence of 0.5 mM anthranilate, respectively. […] It is somewhat consistent with the fact that anthranilate has a distinguished binding site from the catalytic site based on the crystal structure analysis.

T5 sequence (P00909 2-260 S61A): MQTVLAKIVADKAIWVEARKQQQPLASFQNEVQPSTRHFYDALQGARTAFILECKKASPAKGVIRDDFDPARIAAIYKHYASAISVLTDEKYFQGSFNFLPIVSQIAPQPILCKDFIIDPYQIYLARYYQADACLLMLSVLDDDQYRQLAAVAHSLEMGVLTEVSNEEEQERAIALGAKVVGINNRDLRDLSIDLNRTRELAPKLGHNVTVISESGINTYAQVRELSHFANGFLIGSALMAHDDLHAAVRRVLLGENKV
AgTrpC, sequence (P05328 other isoform, or with tags, fused parts or gaps with the stated changes): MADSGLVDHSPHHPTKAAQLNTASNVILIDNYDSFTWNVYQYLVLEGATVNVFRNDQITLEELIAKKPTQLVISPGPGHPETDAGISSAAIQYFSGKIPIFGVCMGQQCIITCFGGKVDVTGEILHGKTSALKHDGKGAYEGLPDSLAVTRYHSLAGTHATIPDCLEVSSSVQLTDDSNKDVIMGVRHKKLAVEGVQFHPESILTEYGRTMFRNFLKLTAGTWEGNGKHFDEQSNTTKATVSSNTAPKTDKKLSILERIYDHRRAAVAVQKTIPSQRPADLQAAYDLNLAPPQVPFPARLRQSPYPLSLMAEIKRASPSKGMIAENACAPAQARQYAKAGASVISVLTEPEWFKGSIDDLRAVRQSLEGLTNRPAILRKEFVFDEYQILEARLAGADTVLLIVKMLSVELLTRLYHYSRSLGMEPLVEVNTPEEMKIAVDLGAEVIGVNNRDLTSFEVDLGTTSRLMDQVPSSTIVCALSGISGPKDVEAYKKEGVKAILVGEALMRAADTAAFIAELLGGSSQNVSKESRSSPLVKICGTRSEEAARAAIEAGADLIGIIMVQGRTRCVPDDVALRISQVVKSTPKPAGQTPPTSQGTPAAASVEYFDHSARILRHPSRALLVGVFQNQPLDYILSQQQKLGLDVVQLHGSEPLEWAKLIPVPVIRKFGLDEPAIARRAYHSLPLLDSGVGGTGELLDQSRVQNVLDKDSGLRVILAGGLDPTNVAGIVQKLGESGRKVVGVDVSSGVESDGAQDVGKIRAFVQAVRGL

## Nc1ccccc1C(=O)O [anthranilate, 2-Aminobenzoic acid]
6His-eIGPs
  IC50: ~400 µM
6His-TrpC; Lineweaver-Burk, CdRP 2.6 to 260 μM, 0 vs 0.5 mM anthranilate
  mechanism of inhibition: noncompetitive inhibitor
6His-TrpC; eIGPs-PRAi two-domain form
  IC50: ~1300 µM
eIGPs-6His; 180 μM CdRP, 30° C., pH 7.5, read-out: inhibition constant (IC50, 50% inhibitory concentration) of eIGPs-6His
  IC50: ~700 µM
eIGPs-6His; 0.5 mM anthranilate, read-out: activity of eIGPs inhibited
  inhibition at 500 µM: 46%
[1]
  regulation of ScIGPs activity by anthranilate: no activation was observed
eIGPs mutant S60A
  IC50: ~2000 µM
eIGPs mutant S60A; read-out: activity of mutant S60A inhibited
  inhibition at 2000 µM: 46%
eIGPs mutant S60G
  inhibition at 2000 µM: 20%
ScTrpC
  regulation of ScTrpC activity by anthranilate: activated
AgTrpC
  regulation of AgTrpC activity by anthranilate: activated

B1: QVFQ: E. coli TrpC variant S58Q, P59V, S60F, K61Q, SEQ ID NO: 30 (protein)
chain: MQTVLAKIVADKAIWVEARKQQQPLASFQNEVQPSTRHFYDALQGARTAFILECKKAQVFQGVIRDDFDPARIAAIYKHYASAISVLTDEKYFQGSFNFLPIVSQIAPQPILCKDFIIDPYQIYLARYYQADACLLMLSVLDDDQYRQLAAVAHSLEMGVLTEVSNEEEQERAIALGAKVVGINNRDLRDLSIDLNRTRELAPKLGHNVTVISESGINTYAQVRELSHFANGFLIGSALMAHDDLHAAVRRVLLGENKVCGLTRGQDAKAAYDAGAIYGGLIFVATSPRCVNVEQAQEVMAAAPLQYVGVFRNHDIADVVDKAKVLSLAAVQLHGNEEQLYIDTLREALPAHVAIWKALSVGETLPAREFQHVDKYVLDNGQGGSGQRFDWSLLNGQSLGNVLLAGGLGADNCVEAAQTGCAGLDFNSAVESQPGIKDARLLASVFQTLRAY
modifications: EcTrpC S58Q P59V S60F K61Q
[2]; Anthranilate 0 mM
  Specific activities: 1.886 ± 0.067 µmol/min/mg
[2]; Anthranilate 0.5 mM
  Specific activities: 1.124 ± 0.074 µmol/min/mg
[2]; Anthranilate 1 mM
  Specific activities: 1.152 ± 0.089 µmol/min/mg
[2]; Anthranilate 2 mM
  Specific activities: 0.906 ± 0.022 µmol/min/mg
[2]; Anthranilate 3 mM
  Specific activities: 0.866 ± 0.016 µmol/min/mg
[2]; apparent, substrate CdRP
  Km: 6.14 ± 0.04 µM
  kcat: 0.027 ± 0.001 s⁻¹
[2]; increasing anthranilate concentrations, FIG. 12
  inhibition by anthranilate compared to wildtype TrpC (in words): significantly less inhibited by anthranilate

B2: I8V (protein)
chain: MQTVLAKVVADKAIWVEARKQQQPLASFQNEVQPSTRHFYDALQGARTAFILECKKASPSKGVIRDDFDPARIAAIYKHYASAISVLTDEKYFQGSFNFLPIVSQIAPQPILCKDFIIDPYQIYLARYYQADACLLMLSVLDDDQYRQLAAVAHSLEMGVLTEVSNEEEQERAIALGAKVVGINNRDLRDLSIDLNRTRELAPKLGHNVTVISESGINTYAQVRELSHFANGFLIGSALMAHDDLHAAVRRVLLGENKVCGLTRGQDAKAAYDAGAIYGGLIFVATSPRCVNVEQAQEVMAAAPLQYVGVFRNHDIADVVDKAKVLSLAAVQLHGNEEQLYIDTLREALPAHVAIWKALSVGETLPAREFQHVDKYVLDNGQGGSGQRFDWSLLNGQSLGNVLLAGGLGADNCVEAAQTGCAGLDFNSAVESQPGIKDARLLASVFQTLRAY
modifications: EcTrpC I8V
[3]
  solubility of the expressed protein (in words): poorer solubility than the wild-type eIGPs
[4]; CdRP 180 μM
  Specific activity in the absence of anthranilate: 0.90 ± 0.03 µmol/min/mg
[4]
  anthranilate resistance / sensitivity compared with wild-type eIGPs (in words): slightly increased

B3: L188F (protein)
chain: MQTVLAKIVADKAIWVEARKQQQPLASFQNEVQPSTRHFYDALQGARTAFILECKKASPSKGVIRDDFDPARIAAIYKHYASAISVLTDEKYFQGSFNFLPIVSQIAPQPILCKDFIIDPYQIYLARYYQADACLLMLSVLDDDQYRQLAAVAHSLEMGVLTEVSNEEEQERAIALGAKVVGINNRDFRDLSIDLNRTRELAPKLGHNVTVISESGINTYAQVRELSHFANGFLIGSALMAHDDLHAAVRRVLLGENKVCGLTRGQDAKAAYDAGAIYGGLIFVATSPRCVNVEQAQEVMAAAPLQYVGVFRNHDIADVVDKAKVLSLAAVQLHGNEEQLYIDTLREALPAHVAIWKALSVGETLPAREFQHVDKYVLDNGQGGSGQRFDWSLLNGQSLGNVLLAGGLGADNCVEAAQTGCAGLDFNSAVESQPGIKDARLLASVFQTLRAY
modifications: EcTrpC L188F
[4]; CdRP 180 μM
  Specific activity in the absence of anthranilate: 1.04 ± 0.02 µmol/min/mg
[4]
  anthranilate resistance / sensitivity compared with wild-type eIGPs (in words): slightly increased

B4: S60G (protein)
chain: MQTVLAKIVADKAIWVEARKQQQPLASFQNEVQPSTRHFYDALQGARTAFILECKKASPGKGVIRDDFDPARIAAIYKHYASAISVLTDEKYFQGSFNFLPIVSQIAPQPILCKDFIIDPYQIYLARYYQADACLLMLSVLDDDQYRQLAAVAHSLEMGVLTEVSNEEEQERAIALGAKVVGINNRDLRDLSIDLNRTRELAPKLGHNVTVISESGINTYAQVRELSHFANGFLIGSALMAHDDLHAAVRRVLLGENKVCGLTRGQDAKAAYDAGAIYGGLIFVATSPRCVNVEQAQEVMAAAPLQYVGVFRNHDIADVVDKAKVLSLAAVQLHGNEEQLYIDTLREALPAHVAIWKALSVGETLPAREFQHVDKYVLDNGQGGSGQRFDWSLLNGQSLGNVLLAGGLGADNCVEAAQTGCAGLDFNSAVESQPGIKDARLLASVFQTLRAY
modifications: EcTrpC S60G
[4]; 18 μM CdRP, absence of anthranilate
  activity relative to the wild-type enzyme: 52%
[4]; CdRP 18 μM
  Specific activity in the absence of anthranilate: 1.13 ± 0.02 µmol/min/mg
[4]; CdRP 60 μM
  Specific activity in the absence of anthranilate: 1.75 ± 0.03 µmol/min/mg
[4]; CdRP 180 μM
  Specific activity in the absence of anthranilate: 1.92 ± 0.02 µmol/min/mg
[4]
  anthranilate resistance / sensitivity compared with wild-type eIGPs (in words): significantly improved
[4]; from rates of increased absorbance
  Km ranking among WT, S60A, S60G: largest Km
[4]; more than 0.1 mM anthranilate, 180 μM CdRP
  specific activity compared with wild type in the presence of anthranilate: higher than that of the wild type

B5: 6His-TrpC: E. coli TrpC, two-domain form, 6His-tag at the N-terminus (protein, UniProt P00909 1-453, looked up)
Tryptophan biosynthesis …: MMQTVLAKIVADKAIWVEARKQQQPLASFQNEVQPSTRHFYDALQGARTAFILECKKASPSKGVIRDDFDPARIAAIYKHYASAISVLTDEKYFQGSFNFLPIVSQIAPQPILCKDFIIDPYQIYLARYYQADACLLMLSVLDDDQYRQLAAVAHSLEMGVLTEVSNEEEQERAIALGAKVVGINNRDLRDLSIDLNRTRELAPKLGHNVTVISESGINTYAQVRELSHFANGFLIGSALMAHDDLHAAVRRVLLGENKVCGLTRGQDAKAAYDAGAIYGGLIFVATSPRCVNVEQAQEVMAAAPLQYVGVFRNHDIADVVDKAKVLSLAAVQLHGNEEQLYIDTLREALPAHVAIWKALSVGETLPAREFQHVDKYVLDNGQGGSGQRFDWSLLNGQSLGNVLLAGGLGADNCVEAAQTGCAGLDFNSAVESQPGIKDARLLASVFQTLRAY
modifications: N-terminal His6 tag
notes: E. coli TrpC, two-domain form, 6His-tag at the N-terminus
[5]; 0.5 mM anthranilate
  Km: 1.53 µM
  Vmax: 2.63 µmol/min/mg
[5]; no anthranilate
  Km: 1.57 µM
  Vmax: 3.64 µmol/min/mg
